Measured values: patent US20200207859A1 (priority 2017, published 2020)

Columns and labels:
SUP-B15 (ALL) = assay: Cell killing assay (cell proliferation, Cell Titer-Glo); type: cell-based; conditions: 72 hrs
Description: Cytotoxicity effects of the free drug linkers and conjugates were measured with a cell proliferation assay. A total of 12500 cells in a volume of 25 μl were seeded in a 384-well flat bottom white polystyrene plate on the day of assay. Free drug-linkers and conjugates were formulated at 2× starting concentration (1000 nM for free drug linkers and 100 nM for ADCs) in RPMI medium and filtered through MultiScreen HTS 96-Well Filter Plates (Millipore). Filter sterilized samples were serial diluted (1:3) under sterile conditions and added into treatment wells. Plates were cultured at 37° C. in a CO2 incubator for 72 hrs. For cell viability measurement, 30 μl of Cell Titer-Glo® reagent (Promega Corp.) was added into each well, and plates processed as per product instructions. Relative luminescence was measured on an ENVISION® plate reader (Perkin-Elmer; Waltham, Mass.). Relative luminescence readings were converted to % viability using untreated cells as controls. Data was fitted with non-linear regression analysis, using log(inhibitor) vs. response, variable slope, 4 parameter fit equation using GraphPad Prism. Data was expressed as % relative cell viability vs. dose of free drug-linker or conjugate in nM.

SU-DHL-6 NHL tumors = assay: Subcutaneous SU-DHL-6 non-Hodgkin's lymphoma model; type: in vivo, mouse; conditions: CB17 SCID mice, s.c. SU-DHL-6, 10 mg/kg q7dx3 IV
Description: Female CB17 SCID mice 9 weeks of age were anesthetized with isoflurane and implanted subcutaneously into the right flank with a 1:1 mixture of SU-DHL-6 cells and matrigel. Randomization, enrollment into treatment groups, and start of treatment was initiated approximately 14 days post implantation. Treatment groups are outlined in Table 6. All test articles were formulated in 10 mM citrate pH 6.0, 9% sucrose and diluted in PBS. Body weight and tumor size were monitored twice per week until mean of control treated tumors were >1000 mm^3 or end of study. Animal body weights included the tumor weight. Percent body weight change (BWC) is calculated relative to weight on the day of treatment. No samples were collected at the end of study.
Tumor size on day 18 post-tumor implantation (last day control animals were on study) was analyzed using a one-way analysis of variance (ANOVA) with Dunnett's multiple comparison test. A probability of less than 5% (p<0.05) was considered as significant.

[1] = test system: MM.1S multiple myeloma cells; assay: Disseminated MM.1S multiple myeloma model; type: in vivo, mouse; conditions: NSG mice; for survival: MM.1S i.v., day 129 post inoculation; for tumor burden: hCD138+ myeloma cells in the bone marrow / hCD138+ cells in the bone marrow: MM.1S; for tumor burden: hCD138+ myeloma cells in the bone marrow: day 32; for hCD138+ cells in the bone marrow: day 129
Description: Female NOD SCID gamma (NSG) mice 8 weeks of age were inoculated with multiple myeloma MM.1S cells into the tail vein. Randomization by body weight and start of treatment was initiated 11 days post tumor inoculation. Treatment groups are outlined in Table 5. Test articles were formulated in 10 mM citrate, pH 6.0, 10% sucrose and diluted in PBS for administration. […] For each group, a subset of animals was used for bone marrow harvest and analysis (n=3) and the remaining animals (n=5) were monitored for survival. Survival endpoint was characterized by >20% body weight loss and clinical signs including lethargy, hind limb paralysis or moribundity. On day 32 (3 weeks after start of treatment), 3 animals from each group were randomly chosen to be euthanized for bone marrow harvest (pooled from tibia and femur) for flow cytometry. On day 129 (˜4 months after start of treatment), all surviving animals were euthanized and bone marrow was harvested (pooled from tibia and femur) for flow cytometry.
Body weights were monitored at least twice per week for up to 129 days. All graphs are presented as mean±standard error of the mean (SEM) versus days post-treatment start.
Percent body weight change (BWC) is calculated relative to weight on the day of treatment. Substantial toxicity was defined as a >20% decrease in animal weight, at which point affected animals are euthanized.
(§1) Bone marrow cells from mouse femur and tibia were pooled and assessed for human CD138 expression using the Alexa Fluor 647 mouse anti-human CD138 clone MI15 (BD Biosciences #562097) according to the manufacturer's protocol. CD138 is a specific surface antigen for MM and plasma cells in the bone marrow (Chilosi, M. et al. (1999), supra). Direct immunofluorescence flow cytometric analysis was performed using an LSRII flow cytometer and FACS Diva Software. Data was analyzed using Flowjo (Tree Star, Inc., Ashland, Oreg.).
Human CD138+ cells in the bone marrow on day 32 was analyzed using one-way analysis of variance (ANOVA) with a Dunnett's adjustment at 0.05 significance level. Data from MM.1 s positive control were excluded from analysis. A probability of less than 5% (p<0.05) was considered as significant.

[2] = test system: ARP-1 multiple myeloma cells; assay: Disseminated ARP-1 multiple myeloma model; type: in vivo, mouse; conditions: CB17 SCID mice, ARP-1 i.v., 3 mg/kg q7dx4 IV
Description: Female CB17 SCID (severe combined immunodeficiency) were inoculated with ARP-1 cells via tail vein injection. Prior to tumor cell inoculation, animals were pre-treated with 0.4 mg/mouse Fludarabine and 2 mg/mouse Cyclophosphamide (intraperitoneal injection). Randomization and treatment was initiated 14 days post tumor inoculation. Treatment groups are outlined in Table 4. All test articles were formulated in 10 mM citrate pH 6.0, 10% sucrose and diluted with PBS. Animals were administered with the designated test article four times every 7 days (q7dx4) by intravenous injection. […] Body weights were monitored twice per week. When vehicle control animals reached the study endpoint (euthanized due to large, palpable internal tumors), three animals from the Group 2 and Group 3 were euthanized for necropsy and bone marrow harvest (from tibia and femur) for flow cytometry. The remaining animals in treated groups were monitored for up to 3 months after start of treatment.
as §1, with “for” for “for human”, “protocol.” for “protocol. CD138 is a specific surface antigen for MM and plasma cells in the bone marrow (Chilosi, M. et al. (1999), supra).”
Body weight, tissue volume, or tissue weights at study endpoint, were analyzed using a one-way analysis of variance (ANOVA) with Dunnett's multiple comparison test. A probability of less than 5% (p<0.05) was considered as significant.

B1: Conjugate A: anti-CD74 IgG with pAMF at heavy chain EU position 404 conjugated to DBCO-PEG4-maytansine (conjugate)
VH: QVQLVESGGGVVQPGRSLRLSCAASGFNFSDYGMHWVRQAPGKGLEWVAVIWYDGSISYYADSVKGRFTISRDNSKNTLYLQMNSLRAEDTAVYYCARGGTVEHGAVYGTDVWGQGTTVTVSS
VL: DIQMTQSPSSVSASVGDRVTITCRASQGIGSWLAWYQQKPGKAPKLLIYAADRLQSGVPSRFSGSGSGTDFTLTISSLQPEDFATYYCQQYHTYPLTFGGGTKVEIK
modifications: non-natural residues
In the case of B1, the “Cell Killing Activity Span” value (SUP-B15 (ALL)) is reported as 64%, the “Cell Killing Activity Span” value (SUP-B15 (ALL); listed as A) is reported as 65% and the “Average final tumor size on day 18” value (SU-DHL-6 NHL tumors) is reported as 291 mm^3. For the same molecule, the “tolerability (effects on animal body weights)” value (SU-DHL-6 NHL tumors) was “well tolerated”, the “tumor growth inhibition compared to control” value (SU-DHL-6 NHL tumors; day 18) was roughly 80% and the survival ([1]; 3 mg/kg q7dx3 IV) was 100%. The survival ([1]; 10 mg/kg q7dx3 IV) was 100%, the “tumor burden: hCD138+ myeloma cells in the bone marrow” value ([1]; 3 mg/kg q7dx3 IV) was “significantly reduced tumor burden” and the “hCD138+ cells in the bone marrow” value ([1]; 3 mg/kg q7dx3 IV) was “no hCD138+ cells were detected”. The “tumor burden: hCD138+ myeloma cells in the bone marrow” value ([1]; 10 mg/kg q7dx3 IV) was “significantly reduced tumor burden”, the “hCD138+ cells in the bone marrow” value ([1]; 10 mg/kg q7dx3 IV) was “no hCD138+ cells were detected” and the “body weight change (BWC)” value [2] was “No meaningful change in body weight”. For the same molecule, the “delay of weight gain after first round of treatment” value [2] was “approximately 20 days”, the “human CD138 positive ARP-1 myeloma cells in the bone marrow (femur and tibia)” value ([2]; flow cytometry) was “substantially inhibited ARP-1 growth in the bone marrow” and the “kidney and ovary tissue weights” value ([2]; n=3) was “comparable tissue weights to untreated age-matched control animals”.
